Laboratory results: patent US20190060239A1, “Technology for the Preparation of Microparticles” (Ansun Biopharma, Inc., priority 2007, published 2019)

Test: Sialidase activity with fluorogenic substrate 4-MU-NANA
Type: biochemical
Protocol: The sialidase activity of DAS181 was measured using the fluorogenic substrate 4-methylumbelliferyl-N-acetyl-α-D-neuraminic acid (4-MU-NANA; Sigma). One unit of sialidase is defined as the amount of enzyme that releases 10 nmol of MU from 4-MU-NANA in 10 minutes at 37° C. (50 mM CH3COOH—NaOH buffer, pH 5.5) in a reaction that contains 20 nmol of 4-MU-NANA in a 0.2 ml volume (Potier et al., Anal. Biochem., 94:287-296, 1979). The specific activity of DAS181 was determined to be 1,300 U/mg protein (0.77 μg DAS181 protein per unit of activity).

B1: DAS181: fusion protein: heparin (GAG) binding domain of human amphiregulin fused to a catalytic domain of Actinomyces Viscosus sialidase (SEQ ID NO:17) (protein)
chain: MGDHPQATPAPAPDASTELPASMSQAQHLAANTATDNYRIPAITTAPNGDLLISYDERPKDNGNGGSDAPNPNHIVQRRSTDGGKTWSAPTYIHQGTETGKKVGYSDPSYVVDHQTGTIFNFHVKSYDQGWGGSRGGTDPENRGIIQAEVSTSTDNGWTWTHRTITADITKDKPWTARFAASGQGIQIQHGPHAGRLVQQYTIRTAGGAVQAVSVYSDDHGKTWQAGTPIGTGMDENKVVELSDGSLMLNSRASDGSGFRKVAHSTDGGQTWSEPVSDKNLPDSVDNAQIIRAFPNAAPDDPRAKVLLLSHSPNPRPWSRDRGTISMSCDDGASWTTSKVFHEPFVGYTTIAVQSDGSIGLLSEDAHNGADYGGIWYRNFTMNWLGEQCGQKPAKRKKKGGKNGKNRRNRKKKNP
modifications: DAS181
specific activity of DAS181 (4-MU-NANA, 37°C, pH 5.5, one unit releases 10 nmol MU in 10 minutes): 1,300 U/mg protein
DAS181 protein per unit of activity (same assay): 0.77 µg
